Measurements taken from patent US20240262869A1.
Read-outs that look alike come from different tables or passages of the source.

Tests used:
[1] = target: neutralizing antibody CR3022
[2] = target: neutralizing antibody CR3022; remark: listed apart in the source
[3] = target: neutralizing antibody CR3022; remark: listed apart in the source

## mInCV02R (SARS CoV-2 RBD N-1) having EIS at the N-terminal (from UniProt P0DTC2 332-532) (ligand)
[1]
  Kd: < 1 nM
[2]
  Kd: 15.9 nM
[3]
  Kd: 16.5 nM
